{"source": "patent US10041047B2", "about": "“Compositions and methods for epithelial stem cell expansion and culture” (The Brigham and Women's Hospital, Inc., priority 2013, dated 2018)", "key": {"[1]": {"system": "Lgr5+ stem/progenitor cells derived from the mouse inner ear", "assay": "Culture of inner ear (cochlear) Lgr5-GFP epithelial cells in Matrigel", "type": "cell-based", "details": "8 day cultures; added to EGF+CV or to the EGF+bFGF combination (FIG. 14D, 14E)", "text": "The same culture condition (EGF, Noggin, R-spondin1, or “ENR”) as used in Lgr5+ small intestinal stem cell cultures was first established.\nIsolated organ of Corti from Lgr5-GFP mice were dissociated into single cells using accutase and cultured in multiple combinations of soluble factors and small molecules in Matrigel for 8 days. The resulting cultures were further dissociated into single cells and analyzed using FACS. […] In addition, the combination of EGF, bFGF and IGF-1 (designated as EFI) improved cell proliferation and GFP expression compared with the ENR condition (FIG. 14A-14C).\nTo further investigate the effects of individual growth factors when combined with CHIR and VPA, growth factors including Mitogenic growth factors (EGF, bFGF and IGF-1) as well as the Wnt agonist R-spondin 1 in combination with CHIR and VPA were tested."}, "[2]": {"system": "Lgr5+ stem cells in small intestinal crypts", "assay": "Small intestinal crypt culture from Lgr5-GFP mice in Matrigel: cell proliferation and Lgr5-GFP expression", "type": "cell-based, mouse", "details": "for requirement of growth factor to maintain self-renewal of Lgr5+ stem cells: crypts 6 days in the CV condition (CHIR 3 μM, VPA 1 mM)", "procedure": "Crypts and single Lgr5-GFP cells were isolated as previously described (Sato et al., 2009). Briefly, the proximal half of the small intestine was harvested, opened longitudinally, and washed with cold PBS to remove luminal content. The tissue was then cut into 2-4 mm pieces with scissors and further washed 5-10 times with cold PBS by pipetting up and down using a 10-ml pipette. Tissue fragments were incubated with 2 mM EDTA in PBS for 30 min on ice. After removal of EDTA, tissue fragments were washed with PBS to release crypts. Supernatant fractions enriched in crypts were collected, passed through a 70 μm cell strainer and centrifuged at 300 g for 5 minutes. The cell pellet was re-suspended with cell culture media without growth factors and centrifuged at 150 g to remove single cells. Crypts were then cultured or used for single cell isolation. To obtain single cells, crypts were incubated in culture medium for 45 minutes at 37° C. and triturated with a glass pipette. Dissociated cells were passed through 20 μm cell strainer, negative stained with propidium iodide and single viable GFP-high cells were sorted by flow cytometry (FACS Aria, BD) as previously described (Sato et al., 2009). Small intestinal crypts isolated from Lgr5-EGFP-ires-CreERT2 mice were embedded in Matrigel and cultured under conventional culture conditions in the presence of EGF, Noggin and R-spondin 1 (collectively referred to as ENR) leading to organoids with crypts and villus-like domains and GFP^+ cells at the crypt tips, consistent with previous reports (Sato et al., 2009). Isolated crypts or single cells were cultured as previously described (Sato et al., 2009) with minimal modification. Briefly, crypts or single cells were entrapped in Matrigel and plated at the center of wells in a 24-well plate. After polymerization of Matrigel (growth factor reduced; BD Bioscience), 500 μl of culture medium (Advanced DMEM/F12 (Life Technologies)) was added containing growth factors including EGF (50 ng/ml, Life Technologies), Noggin (100 ng/ml, Peprotech) and R-spondin 1 (500 ng/ml, R&D) and small molecules including CHIR99021 (3 μM, Stemgent) and Valproic Acid (1 mM, Sigma-Aldrich). For comparison of different culture conditions, small molecules or growth factors were added to freshly isolated crypts immediately after plating in Matrigel to test the ability to minimize potential differentiation of the ISC within the crypts and thus sustain crypt cultures. Cell culture media was changed every other day. For single cell culture, cells were embedded in Matrigel containing Jagged-1 peptide (1 μM; AnaSpec) and Y-27632 (10 μM; Tocris) was added for the first 2 days. Cells were passaged either as cell colonies as previously described (Sato et al., 2009) or as single cells. […]"}}, "data": [{"molecule": "R-spondin 1: agent that binds to the LGR5 receptor, Wnt agonist (protein, UniProt Q2MKA7 21-263, looked up) R-spondin-1: SRGIKGKRQRRISAEGSQACAKGCELCSEVNGCLKCSPKLFILLERNDIRQVGVCLPSCPPGYFDARNPDMNKCIKCKIEHCEACFSHNFCTKCKEGLYLHKGRCYPACPEGSSAANGTMECSSPAQCEMSEWSPWGPCSKKQQLCGFRRGSEERTRRVLHAPVGDHAACSDTKETRRCTVRRVPCPEGQKRRKGGQGRRENANRNLARKESKEAGAGSRRRKGQQQQQQQGTVGPLTSAGPA", "values": [{"measurement": "GFP expression on addition of a growth factor", "setting": "[1]", "value": "slightly increased"}, {"measurement": "requirement of growth factor to maintain self-renewal of Lgr5+ stem cells", "setting": "[2]", "value": "still required"}]}, {"molecule": "Noggin: inhibitor of Bone Morphogenic Proteins (protein, UniProt Q13253 28-232, looked up) Noggin: QHYLHIRPAPSDNLPLVDLIEHPDPIFDPKEKDLNETLLRSLLGGHYDPGFMATSPPEDRPGGGGGAAGGAEDLAELDQLLRQRPSGAMPSEIKGLEFSEGLAQGKKQRLSKKLRRKLQMWLWSQTFCPVLYAWNDLGSRFWPRYVKVGSCFSKRSCSVPEGMVCKPSKSVHLTVLRWRCQRRGGQRCGWIPIQYPIISECKCSC", "values": [{"measurement": "requirement of growth factor to maintain self-renewal of Lgr5+ stem cells", "setting": "[2]", "value": "still required"}]}, {"molecule": "R-Spondin 2: agent that binds to the LGR5 receptor (protein, UniProt Q6UXX9 22-243, looked up) R-spondin-2: QGNRWRRSKRASYVSNPICKGCLSCSKDNGCSRCQQKLFFFLRREGMRQYGECLHSCPSGYYGHRAPDMNRCARCRIENCDSCFSKDFCTKCKVGFYLHRGRCFDECPDGFAPLEETMECVEGCEVGHWSEWGTCSRNNRTCGFKWGLETRTRQIVKKPVKDTILCPTIAESRRCKMTMRHCPGGKRTPKAKEKRNKKKKRKLIERAQEQHSVFLATDRANQ", "values": [{"measurement": "organoid formation (number of organoids formed at day 5)", "setting": "[2]; ENR condition, R-spondin 2 compared to R-spondin 1 at multiple concentrations", "value": "better efficacy at lower concentrations"}]}, {"molecule": "Wnt3a: Wnt pathway activator protein (protein, UniProt P56704 19-352, looked up) Protein Wnt-3a: SYPIWWSLAVGPQYSSLGSQPILCASIPGLVPKQLRFCRNYVEIMPSVAEGIKIGIQECQHQFRGRRWNCTTVHDSLAIFGPVLDKATRESAFVHAIASAGVAFAVTRSCAEGTAAICGCSSRHQGSPGKGWKWGGCSEDIEFGGMVSREFADARENRPDARSAMNRHNNEAGRQAIASHMHLKCKCHGLSGSCEVKTCWWSQPDFRAIGDFLKDKYDSASEMVVEKHRESRGWVETLRPRYTYFKVPTERDLVYYEASPNFCEPNPETGSFGTRDRTCNVSSHGIDGCDLLCCGRGHNARAERRREKCRCVFHWCCYVSCQECTRVYDVHTCK", "values": [{"measurement": "cell proliferation of crypt cells (organoid size and cell numbers)", "setting": "[2]; crypts cultured 6 days, agent added to ENR condition, compared to ENR", "value": "increased crypt proliferation"}]}]}
